The results in this text go back to the supplement of paper PMC12042874.

± gives the uncertainty stated by the source.

The data set in a line: amyloid nucleation score (Sup35N fusion, yeast selection) (log enrichment); library NNK2; higher = more nucleation; inactive = no reads after selection. The essentials: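 The nucleation score, computed with DiMSum, is the log enrichment of output over input reads, centred on the mode score of non-aggregating sequences. Sequences with under 100 input reads were dropped. Reads were generated by Illumina sequencing of plasmid inserts from psi-negative yeast with Sup35N fused to peptides of 20 random codons, induced with 100 μM copper sulfate for 24 hours and grown 7 days at 30°C on medium lacking adenine and uracil.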
Consider MLPFNRSVPNAAFFIGMIGS, for which the amyloid nucleation score was 2.16 ± 0.076. In the case of MLSEADNLRRSYRHRIYEFI it was -0.874 ± 0.76. The figure for MLWVWSLSQTLVRTKVRVLS is 0.024 ± 0.5. The figure for MLYVVCFCILVFLFHTNRMR is -0.674 ± 0.32; for MLYYNESVINAVVYVKGRCW it is -0.012 ± 1.1. Substance MMIPFVMYYRFDGYVKRHTG had an amyloid nucleation score of -0.512 ± 0.76. Take MMNCNVLMDKSSCFRYIVWG: the amyloid nucleation score came to 3.77 ± 0.051.

Take MMWLGFYSCKGIGW: the amyloid nucleation score amounted to 3.991 ± 0.039. The figure for MMWLSARMQR is 6.727 ± 0.049; for MMYDRIIQFTLYTLI it is 3.09 ± 0.057; for MNCVLQKLVVVCFQSMAYMR it is 0.498 ± 0.27. In the case of MNFWILFQNLQHRCVQVTGR it was 3.64 ± 0.068. The figure for MNSIKMEGVRYNNPNDYTFC is -1.14 ± 1.1; for MNSSQGTDAKRMLYHRCSET it is -0.29 ± 0.56; for MNVYMGFTKVLSAVPRLLYG it is -0.408 ± 0.56.

MPVHSQSRMVRRRVDKTI: the amyloid nucleation score was -0.632 ± 0.76.

Take MQAMRRGQKYKSGRVIYVRG: the amyloid nucleation score is -0.554 ± 0.63. With MQFLFK, the amyloid nucleation score was -1.33 ± 1.1.

On to MQIIGWILWGVLQAELHYRS, for which the amyloid nucleation score is -1.01 ± 0.53.

MQIKFKS gave an amyloid nucleation score of -0.38 ± 0.56. In the case of MQLCYKYRTVVTSSLDPEYM it was -0.066 ± 0.74; in that of MQMLWYTMFFNSSRLVC, -1.58 ± 0.61.

For the substance MQWETSGVLCWSKQFGGDWV, the amyloid nucleation score came to 0.864 ± 0.23. Take MRLLVHSWDIESSFNVRMGQ: the amyloid nucleation score is 3.42 ± 0.058. In the case of MRPAPIINN it was 1.14 ± 0.44; in that of MRSYRLYLIPFHFLGWLINS, “inactive”; in that of MRYSPWQGTHILWVLNTTSY, 1.82 ± 0.32. In the case of MSFWMSTTINRN it was 1.67 ± 0.1. As for MSFYFNFIYYFYSYFTFEWF, the amyloid nucleation score entry was “inactive”.

In the case of MSHTVITFFVCIVYSFSHCL, the amyloid nucleation score was 1.86 ± 0.3. MSIEKCICLICSINMEVVGF had an amyloid nucleation score of 6.821 ± 0.059. In the case of MSITSC it was “inactive”; in that of MSLIKTHGKLTVGDVDFPKF, -0.753 ± 0.44. In the case of MSLSLQKYFLWRPGRAPVVR it was -0.03 ± 0.63. In the case of MSLSNDHSGAVWRRAFGYSE it was 0.51 ± 0.51. For the substance MSRIRTTTMNSGFGGYTPVL, the amyloid nucleation score worked out at 3.06 ± 0.056. In turn, MSRKWGGSKRCNGCPPKLVQ returned an amyloid nucleation score of 1.08 ± 0.22. Consider MSSASQILAHDYQNSYG, for which the amyloid nucleation score was -0.383 ± 0.32.

MSSMCNLFRYMFKLYVRSWV had an amyloid nucleation score of -0.681 ± 0.3. MSVMWLASLISFQLFMAAQL came in with an amyloid nucleation score of 0.062 ± 0.79. MSVPFLWFTYHFSRPVLSVT: the amyloid nucleation score came to 0.389 ± 0.27. In the case of MSWAVRDSIHRNYLKFVNRR, the amyloid nucleation score was -0.02 ± 1.1. The entry for MSYILFCLPSNARCFLP is “inactive”; for MTALATRRCHPLYISA it is -0.661 ± 0.42. Take MTKCTDHVRVDDVCLHIRGS: the amyloid nucleation score is -0.255 ± 1.1. The figure for MTKHV is 0.241 ± 0.8; for MTRTFYCFQGRHLDSWDQGE it is 0.371 ± 0.8. MTSALGWQIYVYLSGAEYET had an amyloid nucleation score of 0.31 ± 0.5.

Substance MTSENNWPNYTGLAPTPPAA displayed an amyloid nucleation score of 1.32 ± 0.18. The figure for MTSLGVPNAYCEGNGAWYHR is 0.321 ± 0.21. The substance MTVNSLFHRLNKLRGILPDR returned an amyloid nucleation score of -0.902 ± 0.48. In the case of MTVYLLIVLKFCFRRMSPEA it was -0.255 ± 0.49. The figure for MTWARRRSINIYDRHLRMAG is -0.388 ± 1; for MVAYFPMSPG it is -0.076 ± 0.24. In the case of MVCKLTFRRRCPMNRSRHQV it was 0.469 ± 0.43. The substance MVLEGHKCYGLRNGPNNARI displayed an amyloid nucleation score of 0.451 ± 0.49. In turn, MVLIENSCKMSSYQE had an amyloid nucleation score of -0.405 ± 0.35. The entry for MVNCDYGPLLS is “inactive”; for MVSYKVLEYYVSLITTHLLF it is -0.36 ± 0.49. In the case of MVVGFRLPERLTYWRGGHMS it was 5.324 ± 0.047; in that of MVVYRVPMAQLLPS, “inactive”; in that of MWLLWAKI, “inactive”.

The substance MWLSPRVVVFCRLIFHLLVG gave an amyloid nucleation score of -0.567 ± 1.1. The entry for MWMEVTRPPTGHFRIRGGQA is “inactive”; for MWNQDLSFFCITRDIKVCTF it is 4.87 ± 0.06.

The substance MWSVLNHLRSDSDFSNA returned an amyloid nucleation score of 1.13 ± 0.61. In the case of MYCYSHDQCESLGQRSFGDT it was 0.218 ± 0.8. MYISKVFDALLLLRREPRHR: the amyloid nucleation score entry was “inactive”.

The substance MYLCTGFASSFIKSHHITWR gave an amyloid nucleation score of -0.098 ± 0.43. In turn, MYNRG came in with an amyloid nucleation score of 3.87 ± 0.11.

As for MYVDLKLSYNHSPATLW, the amyloid nucleation score worked out at 5.22 ± 0.061. The figure for MYVMTHNL is 0.776 ± 0.44; for NAHMSRRGYSSMMRCY it is “inactive”. As for NARITVLGSHPWLCPGKVSV, the amyloid nucleation score was found to be 1.06 ± 0.54. In turn, NARVL yielded an amyloid nucleation score of -0.853 ± 0.64.

Turning to NASYRCNM, the amyloid nucleation score result was “inactive”.

NCARH displayed an amyloid nucleation score of -0.215 ± 0.3. The figure for NCAVFTSGR is -0.478 ± 0.63; for NCHFTCMPAACGETVKTY it is 0.597 ± 0.45; for NCIFDMLLVLR it is “inactive”.

NCLEIQFWRLSSRYVGKFVM had an amyloid nucleation score of -0.113 ± 0.32.

Substance NCLSM had an amyloid nucleation score of 3.36 ± 0.081. NCPRWICAILYEYHAVRRRV had an amyloid nucleation score of 0.713 ± 0.49. The figure for NCPSPLVWDCVLVVGDPVAC is 0.217 ± 0.25; for NCSSIF it is “inactive”. The figure for NCYRLWWPVLSTWWRFFI is 0.047 ± 0.35; for NDCMGWH it is “inactive”; for NDLSNGSVESMRQYYYLREN it is -0.724 ± 0.3. NDRNYLSGSGESELLPDCND: the amyloid nucleation score is -0.434 ± 0.76. NDSNYKPANSYRSPSGNRMV: the amyloid nucleation score entry is “inactive”. With NDSQTTLGLFDCRVREADHR, the amyloid nucleation score is -0.003 ± 1.1. The figure for NDTAATGANDETSDFYTEYC is 0.376 ± 0.66. For the substance NDTWR, the amyloid nucleation score was determined as 3.68 ± 0.049.

As for NDVNDLMGCTNQRGMYPQII, the amyloid nucleation score result was “inactive”. In the case of NDWLSHGR it was 4.31 ± 0.054. As for NDYEPRCMFGRIVCSNGPEM, the amyloid nucleation score was found to be 1.14 ± 0.42.

With NEEWSFCKS, the amyloid nucleation score is -0.165 ± 1.

In turn, NENKILSDL had an amyloid nucleation score of -0.585 ± 0.36. The figure for NFCALSKCT is -0.618 ± 0.63; for NFENCVFWYNLYCNFD it is 7.516 ± 0.047; for NFFAHRVCHYFVIRCGLIT it is “inactive”. In the case of NFHLEIIFPRQLRLNRSPWV it was 3.96 ± 0.13; in that of NFIVW, -0.417 ± 0.64; in that of NFKCFTRRVNWESYITEVVR, 3.19 ± 0.068.

Substance NFLRML had an amyloid nucleation score of -0.139 ± 0.21. As to NFLWVLSRKSHGIPYRKFSN, the amyloid nucleation score entry was “inactive”. On to NFNFNCA, for which the amyloid nucleation score worked out at 3.87 ± 0.093.

In turn, NFSAFGRFNLNLWMNNITRL showed an amyloid nucleation score of 4.05 ± 0.077.

As to NFSDFRCLL, the amyloid nucleation score is -0.031 ± 1. Consider NFSIL, for which the amyloid nucleation score is -0.184 ± 1.1. The entry for NFTIHTWVYMHRVNPPGILN is “inactive”. As for NFVNSFRVPISVYKVYLYGG, the amyloid nucleation score was found to be 4.49 ± 0.08.

As to NGFCYFDGLSLSYSKLTGMM, the amyloid nucleation score entry was “inactive”. In the case of NGFVSSSRSFICFRWKWRYY, the amyloid nucleation score worked out at 0.255 ± 1.1. In the case of NGGAVFCVHACYGFRGRYER it was 5.05 ± 0.045. The figure for NGGDRVLSFDIIIAGSLVAK is -0.354 ± 0.39; for NGIRQDNMGGVHVPTGSTII it is -0.277 ± 0.39; for NGLGLTIWL it is 0.448 ± 0.22. The substance NGLQRLITNSKFPTRWTWFG returned an amyloid nucleation score of 0.206 ± 0.33. With NGQYDDTG, the amyloid nucleation score was 2.32 ± 0.14.

NGSSKIERDQRRWGQKAVDT registered an amyloid nucleation score of 2.83 ± 0.089. With NGTLRQYDRSDYINKIGDSN, the amyloid nucleation score was -1.02 ± 0.38. The figure for NGVIRVSWSTR is 6.48 ± 0.087; for NGVPT it is -1.43 ± 1.1; for NGVSMESRFQFSDWWNPTYY it is -0.847 ± 0.64. In the case of NGYRNFIRGHDSRFRGVTTT it was 4.66 ± 0.05; in that of NHIFYRMCSNLTAKYIRLTS, “inactive”; in that of NHLMSMFDCSDTQMSSSSIA, 0.308 ± 0.32. In the case of NHTSNIGSRGTAFFWVLR it was 7.187 ± 0.069.

In turn, NICELPITHKVGSWV yielded an amyloid nucleation score of 0.518 ± 0.38. The figure for NICRM is -0.058 ± 0.53; for NIFNRA it is “inactive”. NIFRESEAERRALNKFYMSF had an amyloid nucleation score of 0.04 ± 0.76. The figure for NIFRRLLSIIIVFDQDRRKM is -1.01 ± 1.1; for NILIRASGVRA it is “inactive”; for NINMWSLCRFLWDAFARR it is 0.378 ± 0.26. In the case of NIQPEK it was -0.587 ± 0.39; in that of NIVLTLSRGF, 2.56 ± 0.1. The figure for NIVRYAMELCDIN is 4.08 ± 0.1. On to NIVVPRRL, for which the amyloid nucleation score is 2.53 ± 0.13.
